Our source for the specific activity values is patent US7807396B2, “Insulin degrading enzyme assays for treatment of alzheimer's disease” (University of Kentucky Research Foundation, priority 2000, dated 2010).

This series concerns the target T1, β-endorphin (Homo sapiens, UniProt P01189).
T1 construct: Human β-endorphin1-31; purchased National Institute on Drug Abuse drug supply system
T1 sequence (P01189 237-267): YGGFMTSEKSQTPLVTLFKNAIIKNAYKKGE
Description: Insulysin activity determination, disappearance of β-endorphin by HPLC. The class given is biochemical. The settings on record: 30 μM β-endorphin, 37° C. The method, then:
Materials. […] Solutions were prepared by dissolving the peptide in dimethylsulfoxide (DMSO) to give a stock concentration of 200 μM. The peptide stock was lyophilized and stored at −80° C. until use. The aggregation state of Aβ peptide stock solutions was checked by electron microscopy (Ray et al. (2000) Brain Res 853:344-351) and found to be predominantly, if not exclusively, monomeric. For the in vitro reactions with insulysin, a final concentration of 25 μM Aβ1-40 was obtained after bringing the lyophilized peptide into solution with double distilled water. […] Human β-endorphin1-31, obtained from the National Institute on Drug Abuse drug supply system, was dissolved in water to give a stock solution of 300 μM. Trifluoroacetic acid (Sigma Biochemicals, St. Louis, Mo.) was diluted into water to produce a 5% working solution.
Insulysin activity was assayed by measuring the disappearance of β-endorphin by isocratic reverse phase HPLC (Safavi et al. (1996) Biochemistry 1996 35:14318-14325). A 100 μl reaction mixture containing 40 mM potassium phosphate buffer, pH 7.2, 30 μM β-endorphin, and enzyme was incubated for 15 minutes at 37° C. […] The β-endorphin peak was detected by absorbance at 214 nm using a Waters 484 detector. The reaction was quantitated by measuring the decrease in the β-endorphin peak area.

B1: enzyme purified from a thymoma cell line, EL-4: insulysin enzyme purified from a thymoma cell line, EL-4, used for comparison of specific activity (protein, UniProt Q9JHR7 1-1019, looked up)
Insulin-degrading enzyme: MRNGLVWLLHPALPGTLRSILGARPPPAKRLCGFPKQTYSTMSNPAIQRIEDQIVKSPEDKREYRGLELANGIKVLLISDPTTDKSSAALDVHIGSLSDPPNIPGLSHFCEHMLFLGTKKYPKENEYSQFLSEHAGSSNAFTSGEHTNYYFDVSHEHLEGALDRFAQFFLCPLLDASCKDREVNAVDSEHEKNVMNDAWRLFQLEKATGNPKHPFSKFGTGNKYTLETRPNQEGIDVREELLKFHSTYYSSNLMAICVLGRESLDDLTNLVVKLFSEVENKNVPLPEFPEHPFQEEHLRQLYKIVPIKDIRNLYVTFPIPDLQQYYKSNPGYYLGHLIGHEGPGSLLSELKSKGWVNTLVGGQKEGARGFMFFIINVDLTEEGLLHVEDIILHMFQYIQKLRAEGPQEWVFQECKDLNAVAFRFKDKERPRGYTSKIAGKLHYYPLNGVLTAEYLLEEFRPDLIDMVLDKLRPENVRVAIVSKSFEGKTDRTEQWYGTQYKQEAIPEDVIQKWQNADLNGKFKLPTKNEFIPTNFEILSLEKDATPYPALIKDTAMSKLWFKQDDKFFLPKACLNFEFFSPFAYVDPLHCNMAYLYLELLKDSLNEYAYAAELAGLSYDLQNTIYGMYLSVKRYNDKQPILLKKITEKMATFEIDKKRFEIIKEAYMRSLNNFRAEQPHQHAMYYLRLLMTEVAWTKDELKEALDDVTLPRLKAFIPQLLSRLHIEALLHGNITKQAALGVMQMVEDTLIEHAHTKPLLPSQLVRYREVQLPDRGWFVYQQRNEVHNNCGIEIYYQTDMQSTSENMFLELFCQIISEPCFNTLRTKEQLGYIVFSGPRRANGIQGLRFIIQSEKPPHYLESRVEAFLITMEKAIEDMTEEAFQKHIQALAIRRLDKPKKLSAECAKYWGEIISQQYNYDRDNIEVAYLKTLTKDDIIRFYQEMLAVDAPRRHKVSVHVLAREMDSCPVVGEFPSQNDINLSEAPPLPQPEVIHNMTEFKRGLPLFPLVKPHINFMAAKL
Consider B1, for which the specific activity is 3.3 μmols/min/mg.
